T1: BMP6 (Homo sapiens, UniProt P22004)
T1 sequence (P22004 375-513): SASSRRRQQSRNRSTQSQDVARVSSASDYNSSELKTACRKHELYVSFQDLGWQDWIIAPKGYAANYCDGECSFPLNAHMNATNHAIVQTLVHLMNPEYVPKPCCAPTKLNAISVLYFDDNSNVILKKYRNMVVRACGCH

T2: BMP5 (Homo sapiens, UniProt P22003)
T2 sequence (P22003 317-454): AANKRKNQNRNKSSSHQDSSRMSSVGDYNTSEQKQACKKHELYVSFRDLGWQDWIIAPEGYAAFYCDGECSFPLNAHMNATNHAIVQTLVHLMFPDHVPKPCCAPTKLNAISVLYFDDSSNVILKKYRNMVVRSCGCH

T3: BMP7 (Homo sapiens, UniProt P18075)
T3 sequence (P18075 293-431): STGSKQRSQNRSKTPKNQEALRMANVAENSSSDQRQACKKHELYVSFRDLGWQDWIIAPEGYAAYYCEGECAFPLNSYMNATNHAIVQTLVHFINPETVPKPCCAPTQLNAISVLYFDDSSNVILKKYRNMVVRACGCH


Columns and labels:
[1] = target: T1, BMP6; assay: BMP activity luciferase reporter assay (BRE-luciferase, ID1 promoter) in C2C12 cells; assay type: cell-based, mouse
Method: One of the most studied BMP target genes is the Inhibitor of Differentiation 1 (ID1). This is an immediate early gene that is activated by binding of the phosphorylated SMADs to its promoter region (López-Rovira et al., 2002). Thus, we employed the BMP-responsive C2C12 cells, which are stably transfected with the BRE-luciferase vector containing the BMP-Responsive-Element (the mouse ID1 promoter) cloned into the pGL3 luciferase vector (Zilberberg 2007). […] C2C12 cells were treated with the different BMPs with or without our VHHs or human Noggin at a concentration of 5 μg/ml. Luciferase activity was measured after 16 hours incubation. Most of the transcriptional data is in concordance with the results obtained with the phosphorylation of SMAD1/5/8.
C2C12 cells were plated in 96-well plates at 5×10^3 cells/well and cells were allowed to attach overnight. 100 μl of DMEM with 0.1% BSA were added in each well. VHH antibodies and human Fc-Noggin at the indicated concentrations were added at the same time. Wells with unstimulated cells were added as controls. Cells were treated in triplicate with the BMPs at the indicated concentrations for 16 hours. Luciferase activity was measured by adding 100 μl of luciferase substrate solution from the Bright-Glo™ Luciferase Assay System (Promega Benelux, Leiden, The Netherlands). After 3 minutes of incubation, luciferase activity was measured with Synergy HT Multi-Mode Microplate Reader (Biotek, Winooski, Vt., United States). Luciferase values were normalized to background activity (activity of wells with no cells) and represented as ratio to the activity of BMP-stimulated cells.
C2C12 cells were cultured in 96-well plates at 5×10^3 cells/well. […]

[2] = target: T2, BMP5; assay: Surface plasmon resonance (SPR), BMPs injected over VHH-coated chip; assay type: binding; conditions: molecule coupled to chip; unit inferred
Method: (§1) To confirm their BMP specificities and to elucidate their binding affinities, our VHHs were subjected to surface plasmon resonance (SPR) analysis. In a first set of experiments, controls and VHHs (either as monomers or dimers) were coupled to SPR chips and the measurement of BMP affinities was obtained by injecting the different BMPs to the plate.
(§2) Serial dilutions (2.0-10 μg/ml) of purified VHHs were spotted on an amine-specific SensEye gold-film gel-type SPRchip (Ssens), using a Continuous Flow Microspotter (Wasatch Microfluidics, Salt Lake City, Utah, United States) as described (Lokate et al., 2007). BMP binding was analyzed on an IBIS MX96 (IBIS Technologies, Enschede, The Netherlands) instrument by performing injections with dilution series (0.05-2.0 μg/ml) of recombinant BMPs on the VHH-coated chip. In each injection, BMPs were injected and incubated for 8 min, followed by 15 min thorough washing with binding buffer (PBS+0.05% Tween20+0.05% sodium azide) to measure dissociation. Epitope binning was done by injecting VHH dilutions (2.0 μg/ml) over the chip, immediately after the dissociation step. Injections with blank binding buffer were used as reference. After each concatenated injection, the chip was regenerated with 10 mM glycine-HCl, pH 2.0. Experimental data were processed with SPRintX software (IBIS Technologies) and kinetic parameters were determined using Scrubber2 software (BioLogic Software, Campbell, ACT, Australia). Binding constants were obtained by global fitting to a one-site binding model.

[3] = target: T3, BMP7; assay: as above; assay type: binding; conditions: for Kd: molecule coupled to chip, unit inferred, — not defined there (Table 1: No binding detected)
Method: as §1, §2

Row | inhibition of BMP-6 signals, comparison of inhibitors ([1]; 50 ng/ml hBMP6, 16 h, 500 ng/ml) | Kd [2] [nM] | Kd [3] [nM] | inhibition of BMP6-mediated transcriptional activation by dimers ([1]; BMP6 50 ng/ml, 16 hours, increasing concentrations) | unspecific binding of dimers to BMP7 (SPR, in words) ([3]; in contrast to the functional results) | Molecule
1 | inhibited | 68 | 80 | – | – | hNoggin (protein) QHYLHIRPAPSDNLPLVDLIEHPDPIFDPKEKDLNETLLRSLLGGHYDPGFMATSPPEDRPGGGGGAAGGAEDLAELDQLLRQRPSGAMPSEIKGLEFSEGLAQGKKQRLSKKLRRKLQMWLWSQTFCPVLYAWNDLGSRFWPRYVKVGSCFSKRSCSVPEGMVCKPSKSVHLTVLRWRCQRRGGQRCGWIPIQYPIISECKCSC
2 | – | 95 | 31 | unable to impair | shown to bind | C8E7: E7 linked to C8, hetero-dimer VHH bihead (protein) EVQLVESGGGLVQAGGSLRLSCAASGRTFRINDMGWYRQAPGKSRDMVARITSGGNTNYADSVKGRFTISRDNAKNTVYLQMNSLKPEDTAVYYCNADGLRFDSTRYRPFDSWGQGTQVTVSSGGGGSGGGGSEVQLVESGGGLVQAGGSLRLSCAASGSIRGFVAMAWYRQAPGKQREWVATVTNGGTLYGDSVKGRFTGSRDNAKNTVYLQMNSLKPEDTAVYYCALRQIGASGYDYWGQGTQVTVSS

Source: patent US10280218B2, “Antibodies binding to BMP4, and uses thereof” (ACADEMISCH MEDISCH CENTRUM, priority 2014, dated 2019)
